Publication PMC11746992 (Nature Communications, 2025)

B1: m41# (engineered mouse Fc version of 41#) (antibody, V domains shown)
VH: EVQLVESGGGPVQPGGSLKLSCAASGFTFSNYEMYWVRQAPGKGLEWVSYISTSPAITYYADSVRGRFTISRDNAKSSLYLHMNSLRAEDTAVYYCATISHQQFSSGWNAWFDPWGQGTLVTVSG
VL: NFMLTQPHSVSESPGKTVTISCTGSSGSIASNYVQWYRQRPGSAPTTVIYENYQRPSGVPARFSGSIDRSSNSASLTISGLQTDDEADYYCQSYDNNNLWVFGGGTKLTVL
B2: C7H13 (chimeric antibody: variable regions of 7H13 in a human antibody framework) (antibody, V domains shown)
VH: QVQLKESGPGLVAPSQSLSITCTVSGFSLSRYSVHWVRQPPGKGLEWLGMIWNIGSTDYNSALKSRLSISKDNSQSQVFLKLNSLQTDDAAIYYCARNSGFDLFDFWGQGTTLTVS
VL: DIVMTQSHKFMSTSVGDRVSITCKASQDVTSAVAWYQQKPGQSPKLLISSASYRYTGVPDRFSGSGSGTDFTFTISSVQAEDLAVYYCQQHYSTPPTFGAGTKLELK

Molecular target: VP4 coated on microplates (indirect blocking ELISA) (Rotavirus A, simian strain SA11 …, UniProt A2T3T2)
Assay: ELISA

| Binder | binding result |
| --- | --- |
| B1 | binds |
| B2 | binds |
